Laboratory results reported in paper PMC9859758.
Blank lines part the entries; values can stand above or below the substance they belong to.

Tests used:
[1] = biological target: His-tagged Naumovozyma castellii Kar9 N-terminal domain (NcKar9N, residues 1-410), wild type (Naumovozyma castellii); assay: SEC-MALS; 20 mM Tris-HCl pH 7.5, 150 mM NaCl, 1 mM dithiothreitol; S-200 10/300 column; 30 μl of 200 μM protein injected
[2] = biological target: His-tagged NcKar9N-β^− (Arg233Ala/Ile237Ala) (Naumovozyma castellii); assay: as above
[3] = biological target: His-tagged NcKar9N-β^− (Arg233Ala/Ile237Ala) (Naumovozyma castellii); assay: SEC-MALS; 20 mM Tris-HCl pH 7.5, 50 mM NaCl, 1 mM dithiothreitol; S-200 10/300 column; 30 μl of 200 μM protein injected
[4] = biological target: His-tagged NcKar9N-γ^− (Tyr363Ala/Arg364Ala) (Naumovozyma castellii); assay: as above

- stoichiometry N [1]: 2
Substance: His-tagged Naumovozyma castellii Kar9 N-terminal domain (NcKar9N, residues 1-410), wild type (domain or fragment)

- stoichiometry N [2]: 2
- stoichiometry N [3]: 2
Substance: His-tagged NcKar9N-β^− (Arg233Ala/Ile237Ala) (domain or fragment)

- stoichiometry N [4]: < 4
Substance: His-tagged NcKar9N-γ^− (Tyr363Ala/Arg364Ala) (domain or fragment)
